Biological target: APC2 (cullin subunit of APC/C) (human, UniProt Q9UJX6 1-822)
Assay: cryo-EM structure

- binding result: binds
B1: UBE2C (C102A), catalytic Cys only version, in the multiubiquitination trap (enzyme, human, UniProt O00762 1-179, looked up)
chain: MASQNRDPAATSVAAARKGAEPSGGAARGPVGKRLQQELMTLMMSGDKGISAFPESDNLFKWVGTIHGAAGTVYEDLRYKLSLEFPSGYPYNAPTVKFLTPAYHPNVDTQGNICLDILKEKWSALYDVRTILLSIQSLLGEPNIDSPLNTHAAELWKNPTAFKKYLQETYSKQVTSQEP
modifications: active site Cys joined to the TMEA crosslinker
